Reference: US8114832

Target: endostatin (UniProt P39060)
Assay: SPR (Biacore), Fn F4-5 immobilized on CM5 chip, concentration series of endostatin

endostatin, sequence (P39060 1572-1754): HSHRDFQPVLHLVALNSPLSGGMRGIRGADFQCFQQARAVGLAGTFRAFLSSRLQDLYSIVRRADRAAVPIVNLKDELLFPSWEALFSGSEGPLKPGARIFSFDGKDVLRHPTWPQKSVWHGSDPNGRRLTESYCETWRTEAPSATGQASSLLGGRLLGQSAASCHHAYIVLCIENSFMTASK

concentration of ligand that results in half maximum binding: 800 nM
Substance: Fn F4-5-His6 (from UniProt P02751 182-276)
